How the values were obtained:
[1] = molecular target: HLA-B*40:01; test: IEDB peptide-MHC binding, purified MHC/direct/fluorescence; filed as Kd, often an IC50 or EC50 that approximates it; ≥ and ≤ were set here for values at or beyond the usual limits of such assays; conditions: source organism: Influenza A virus (A/Moscow/343/2003(H3N2))
[2] = molecular target: HLA-A*02:01; test: IEDB peptide-MHC binding, purified MHC/competitive/fluorescence; filed as Kd, often an IC50 or EC50 that approximates it; ≥ and ≤ were set here for values at or beyond the usual limits of such assays
[3] = molecular target: HLA-A*02:01; test: IEDB peptide-MHC binding, purified MHC/competitive/fluorescence; ≥ and ≤ were set here for values at or beyond the usual limits of such assays
[4] = molecular target: HLA-A*02:01; test: IEDB peptide-MHC binding, purified MHC/direct/fluorescence; filed as Kd, often an IC50 or EC50 that approximates it; ≥ and ≤ were set here for values at or beyond the usual limits of such assays
[5] = molecular target: HLA-A*02:06; test: IEDB peptide-MHC binding, purified MHC/competitive/radioactivity; filed as Kd, often an IC50 or EC50 that approximates it; ≥ and ≤ were set here for values at or beyond the usual limits of such assays
[6] = molecular target: HLA-A*02:03; test: as above
[7] = molecular target: HLA-A*02:02; test: as above
[8] = molecular target: HLA-A*11:01; test: as above; conditions: source organism: Dengue virus 3 Martinique/1243/1999
[9] = molecular target: HLA-A*01:01; test: as above
[10] = molecular target: HLA-A*03:01; test: as above; conditions: source organism: Dengue virus 3 Martinique/1243/1999
[11] = molecular target: HLA-A*24:02; test: as above
[12] = molecular target: HLA-A*23:01; test: as above
[13] = molecular target: HLA-A*26:01; test: as above
[14] = molecular target: HLA-B*15:01; test: IEDB peptide-MHC binding, purified MHC/direct/fluorescence; filed as Kd, often an IC50 or EC50 that approximates it; ≥ and ≤ were set here for values at or beyond the usual limits of such assays
[15] = molecular target: HLA-A*26:01; test: as above
[16] = molecular target: HLA-B*27:05; test: as above; conditions: source organism: Homo sapiens
[17] = molecular target: HLA-A*11:01; test: as above; conditions: source organism: Homo sapiens
[18] = molecular target: HLA-A*03:01; test: as above
[19] = molecular target: HLA-A*69:01; test: as above
[20] = molecular target: HLA-B*58:01; test: as above
[21] = molecular target: HLA-A*30:02; test: IEDB peptide-MHC binding, purified MHC/competitive/radioactivity; filed as Kd, often an IC50 or EC50 that approximates it; ≥ and ≤ were set here for values at or beyond the usual limits of such assays
[22] = molecular target: HLA-B*07:02; test: IEDB peptide-MHC binding, purified MHC/direct/fluorescence; filed as Kd, often an IC50 or EC50 that approximates it; ≥ and ≤ were set here for values at or beyond the usual limits of such assays
[23] = molecular target: HLA-A*01:01; test: as above; conditions: source organism: West Nile virus
[24] = source organism: Mycobacterium tuberculosis
[25] = source organism: Mammarenavirus juninense
[26] = source organism: Dengue virus 3 Martinique/1243/1999
[27] = source organism: Zaire ebolavirus
[28] = source organism: Dengue virus 2 Jamaica/1409/1983
[29] = source organism: Dengue virus 1 Brazil/97-11/1997
[30] = source organism: Marburg virus - Musoke, Kenya, 1980
[31] = source organism: Sudan ebolavirus
[32] = source organism: Yersinia pestis
[33] = source organism: Vaccinia virus WR
[34] = source organism: Lassa virus Josiah

AEDMGNGCF
Kd [1]: 0.166 µM

ALFGIKLPAL
Kd ([2]; source organism: Vaccinia virus Copenhagen): 0.0003 µM

ALVREGLRNV
IC50 [3, 24]: 0.13 µM

AMPGVLSYV
Kd [4, 25]: 0.0036 µM | Kd [5, 25]: 0.0218 µM | Kd [6, 25]: 0.00729 µM | Kd [7, 25]: 0.00422 µM

CTNTFVLKK
Kd [8]: 0.0778 µM | Kd [9, 26]: 5.09 µM | Kd [10]: 0.00971 µM

DDQEKKILM
IC50 [3, 27]: ≥ 1720 µM

DFAGKTVWF
Kd [11, 26]: 3.03 µM | Kd [12, 26]: 6.48 µM

DLKPQNILL
Kd ([2]; source organism: Homo sapiens): 2 µM

DVDKLVCRD
IC50 [3, 27]: 51.9 µM

DVFCDSKLM
Kd [13, 28]: 1.88 µM

EADPTGHSY
Kd ([14]; source organism: Homo sapiens): 13.5 µM

EPILEYVVY
Kd ([15]; source organism: Francisella tularensis subsp. tularensis FSC033): 0.827 µM

ERLQICQRK
Kd [16]: 1.69 µM | Kd [17]: 9.4 µM | Kd ([18]; source organism: Homo sapiens): 10.4 µM

ETAEAMHAS
Kd [15, 24]: 0.071 µM

EVTAKWLWGF
Kd [13, 29]: 0.0807 µM

FLYDRIAST
Kd [4, 30]: 0.005 µM | Kd [19, 30]: 1.84 µM

FTNMEAQLI
Kd [9, 28]: 2.16 µM

FVRLDRPHT
IC50 [3, 31]: ≥ 101 µM

HTQTAGPWHL
Kd [9, 28]: ≥ 70.4 µM

IAGFIENGW
Kd ([20]; source organism: Influenza A virus (A/Sichuan/2/1987(H3N2))): 0.144 µM

IFISANNQW
Kd ([20]; source organism: Vibrio vulnificus): 0.0228 µM

IGKMLESTY
Kd ([21]; source organism: Dengue virus 4 Philippines/H241/1956): 0.0185 µM

ITNTIAGVA
IC50 [3, 27]: 19.9 µM

IWGRKSWPL
Kd [11, 29]: 0.0933 µM

KAFSMPLGV
IC50 [3, 31]: 9.08 µM

KLSDGVAVL
IC50 ([3]; source organism: Homo sapiens): 6.5 µM

KNEHKSTWHY
Kd [21, 29]: 0.45 µM

LFSGVSWIM
Kd ([11]; source organism: Dengue virus 3 Singapore/8120/1995): 0.141 µM

LIPLWMAGL
Kd ([15]; source organism: Vibrio vulnificus CMCP6): 8.98 µM

LLAALFHDI
Kd [4, 32]: 0.085 µM | Kd [19, 32]: 1.94 µM | Kd [14, 32]: 2.48 µM | Kd [20, 32]: 1.94 µM

LLHDIGKPV
Kd [22, 24]: 11.5 µM | Kd [19, 24]: ≥ 20 µM

LLLGGTSEI
Kd [19, 24]: 0.846 µM

LLPFGQLSI
Kd ([2]; source organism: Escherichia coli O139:H28 str. E24377A): 0.147 µM

LLVNEFYI
Kd [2, 33]: 0.0587 µM

LPYTFMLRK
Kd ([18]; source organism: Escherichia coli): ≥ 20 µM

LQLNETIYT
IC50 [3, 27]: 2.7 µM

MTRGILGSY
Kd [23]: 7 µM

NITTAVKTV
IC50 [3, 31]: 22.8 µM

NSTSTWVTY
Kd [21, 28]: 1.73 µM | Kd [9, 28]: 7.23 µM

QYIYMGEPL
Kd [12, 28]: 0.205 µM

RGDLPVWLAY
Kd [21, 28]: 0.00685 µM

RLGADLDAV
IC50 [3, 33]: 7.72 µM

RMIGGIGRFYI
Kd ([2]; source organism: Influenza A virus (A/swine/Italy/2/1979(H1N1))): 0.0003 µM

RPVSPGKDI
Kd ([22]; source organism: Homo sapiens): 0.0453 µM

RVFKKIMSI
Kd [5, 33]: 0.0752 µM | Kd [6, 33]: 0.00018 µM | Kd [7, 33]: 0.35 µM

RVNDLNRMPT
Kd [5, 33]: 7.72 µM | Kd [6, 33]: 1.44 µM | Kd [7, 33]: 1.36 µM

RVNHAKYMVT
Kd [5, 33]: 9.33 µM | Kd [6, 33]: 1.05 µM | Kd [7, 33]: ≥ 33.6 µM

SIILEFFLM
Kd [13, 29]: 4.19 µM

SIINHKFCNL
Kd [5, 34]: 1.01 µM | Kd [6, 34]: 0.562 µM | Kd [7, 34]: 0.247 µM

SIPISELSRL
Kd [5, 33]: 0.0782 µM | Kd [6, 33]: 0.0606 µM | Kd [7, 33]: 0.252 µM

SLFGQRIEV
IC50 ([3]; source organism: West Nile virus NY-99): 0.204 µM | Kd ([2]; source organism: West Nile virus): 0.0009 µM
